The target of assay [1] is 原核表达并纯化的sIFN-λ4重组蛋白 (porcine IFN-λ4, E. coli, pET-15b-sIFN-λ4) (pig). The experiment in a line: indirect ELISA, purified ascites antibody diluted 100-fold and then in 2-fold steps to 100×2^12.
Assay [2] shares this target. The experiment in a line: indirect ELISA, antigen coated in 2-fold dilutions; positive if OD630nm of the well : OD630nm of the negative well ≥2.1.

B1: 单克隆抗体λ4-1A2 (sIFN-λ4单克隆抗体, secreted by hybridoma cell line λ4-1A2, CCTCC NO:C2022132) (antibody, V domains shown)
VH: QVTLKESGPGKLQPSQTLTLTCSFSGFSLNTYGIGVAWIRQPSGKGLEWLAHIWWNDNKYYNSALKTRLTISKDTSNNQVFLKIASVDTADTATYYCASIKGDYWGQGTS
VL: NIVLTQSPASLAVSLGQRATISCRASKSVDSFGKSFMHWYQQKPGQPPKLLIYLVSNLESGVPARFSGSGSRTDFTLTIDPVEADDAATYYCQQNNEDPPTFGGGTKLEIKR
B1 had a 效价 (ELISA titre) (fold dilution) in assay [1] of 205000. The molecule further registered a 最低检测限 (lowest detectable amount of coated antigen) in assay [2] of 6.25 ng.

The record behind these values is patent CN115125215A.
